Reference: the supplement of paper PMC10065799, “High-throughput profiling of sequence recognition by tyrosine kinases and SH2 domains using bacterial peptide display” (eLife, 2023)

Columns and labels:
Grb2 SH2 = Grb2 SH2 (UniProt P62993); assay: SH2 binding enrichment of the phosphorylated peptide, bacterial display (enrichment ratio); higher = better substrate or ligand; peptides without Tyr show the background
SHP2-C SH2 = assay: as above
c-Src SH2 = assay: as above
Fer (mouse) = assay: phosphorylation enrichment, bacterial display (enrichment ratio); higher = better substrate or ligand; peptides without Tyr show the background
Fes = Fes (UniProt P07332); assay: as above
Fes, sequence (P07332 whole entry, looked up): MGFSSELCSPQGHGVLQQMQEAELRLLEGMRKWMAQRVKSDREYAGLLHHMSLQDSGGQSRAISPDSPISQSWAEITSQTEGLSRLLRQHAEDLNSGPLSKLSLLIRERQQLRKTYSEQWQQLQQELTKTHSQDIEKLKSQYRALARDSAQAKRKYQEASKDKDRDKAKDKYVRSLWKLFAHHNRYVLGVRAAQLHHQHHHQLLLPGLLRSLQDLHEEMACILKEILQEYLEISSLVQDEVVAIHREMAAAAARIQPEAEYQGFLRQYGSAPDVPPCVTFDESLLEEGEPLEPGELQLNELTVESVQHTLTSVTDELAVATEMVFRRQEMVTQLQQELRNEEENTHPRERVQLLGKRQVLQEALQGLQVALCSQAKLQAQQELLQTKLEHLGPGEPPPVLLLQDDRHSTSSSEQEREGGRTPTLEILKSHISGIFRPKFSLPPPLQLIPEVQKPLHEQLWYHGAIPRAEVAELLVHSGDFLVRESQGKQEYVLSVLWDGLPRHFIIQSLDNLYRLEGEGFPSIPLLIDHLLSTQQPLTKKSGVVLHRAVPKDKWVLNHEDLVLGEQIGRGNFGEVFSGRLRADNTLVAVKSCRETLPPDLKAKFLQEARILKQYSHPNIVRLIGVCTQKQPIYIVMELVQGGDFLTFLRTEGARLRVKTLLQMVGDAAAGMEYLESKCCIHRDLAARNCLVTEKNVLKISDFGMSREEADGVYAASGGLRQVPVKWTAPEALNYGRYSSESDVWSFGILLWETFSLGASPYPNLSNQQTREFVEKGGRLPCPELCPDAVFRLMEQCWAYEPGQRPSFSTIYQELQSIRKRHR

c-Src = assay: as above
FGFR1 = FGFR1 (UniProt P11362); assay: as above
EPHB2 = EPHB2 (UniProt P29323); assay: as above
Fyn = Fyn (UniProt P06241); assay: as above
Jak2 = Jak2 (UniProt O60674); assay: as above
Jak2, sequence (O60674 whole entry, looked up): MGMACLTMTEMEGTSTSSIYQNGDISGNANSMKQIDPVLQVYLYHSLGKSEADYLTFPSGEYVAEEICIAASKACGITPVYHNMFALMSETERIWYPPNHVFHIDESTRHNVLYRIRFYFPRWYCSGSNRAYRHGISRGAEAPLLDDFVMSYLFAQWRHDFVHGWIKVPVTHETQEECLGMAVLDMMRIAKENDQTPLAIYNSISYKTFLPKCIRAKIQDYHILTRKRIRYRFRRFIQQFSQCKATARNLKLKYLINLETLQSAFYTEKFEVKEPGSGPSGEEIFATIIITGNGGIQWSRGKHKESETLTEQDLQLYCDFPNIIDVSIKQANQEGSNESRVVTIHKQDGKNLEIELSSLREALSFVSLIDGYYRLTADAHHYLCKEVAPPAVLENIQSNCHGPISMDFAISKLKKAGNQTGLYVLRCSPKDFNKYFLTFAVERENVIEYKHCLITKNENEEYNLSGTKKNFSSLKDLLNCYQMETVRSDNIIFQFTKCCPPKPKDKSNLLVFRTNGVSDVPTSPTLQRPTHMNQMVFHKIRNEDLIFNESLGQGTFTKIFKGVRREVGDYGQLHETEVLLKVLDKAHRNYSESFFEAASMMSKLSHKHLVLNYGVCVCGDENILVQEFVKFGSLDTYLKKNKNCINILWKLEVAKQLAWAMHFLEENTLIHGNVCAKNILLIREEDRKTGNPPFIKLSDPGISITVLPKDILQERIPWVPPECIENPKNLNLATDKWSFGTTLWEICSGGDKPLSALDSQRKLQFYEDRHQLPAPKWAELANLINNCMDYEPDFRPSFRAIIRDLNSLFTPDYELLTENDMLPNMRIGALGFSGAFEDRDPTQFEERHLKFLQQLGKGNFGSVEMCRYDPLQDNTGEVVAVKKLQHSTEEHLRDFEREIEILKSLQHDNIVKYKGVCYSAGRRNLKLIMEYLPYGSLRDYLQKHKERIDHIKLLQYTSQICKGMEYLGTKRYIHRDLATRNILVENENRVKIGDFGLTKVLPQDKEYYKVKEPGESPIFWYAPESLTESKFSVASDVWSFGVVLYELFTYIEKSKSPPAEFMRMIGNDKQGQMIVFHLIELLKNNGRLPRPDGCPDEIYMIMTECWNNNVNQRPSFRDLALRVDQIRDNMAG

AncSZ = assay: as above
Hck = Hck (UniProt P08631); assay: as above
MERTK = MERTK (UniProt Q12866); assay: as above
MERTK, sequence (Q12866 whole entry, looked up): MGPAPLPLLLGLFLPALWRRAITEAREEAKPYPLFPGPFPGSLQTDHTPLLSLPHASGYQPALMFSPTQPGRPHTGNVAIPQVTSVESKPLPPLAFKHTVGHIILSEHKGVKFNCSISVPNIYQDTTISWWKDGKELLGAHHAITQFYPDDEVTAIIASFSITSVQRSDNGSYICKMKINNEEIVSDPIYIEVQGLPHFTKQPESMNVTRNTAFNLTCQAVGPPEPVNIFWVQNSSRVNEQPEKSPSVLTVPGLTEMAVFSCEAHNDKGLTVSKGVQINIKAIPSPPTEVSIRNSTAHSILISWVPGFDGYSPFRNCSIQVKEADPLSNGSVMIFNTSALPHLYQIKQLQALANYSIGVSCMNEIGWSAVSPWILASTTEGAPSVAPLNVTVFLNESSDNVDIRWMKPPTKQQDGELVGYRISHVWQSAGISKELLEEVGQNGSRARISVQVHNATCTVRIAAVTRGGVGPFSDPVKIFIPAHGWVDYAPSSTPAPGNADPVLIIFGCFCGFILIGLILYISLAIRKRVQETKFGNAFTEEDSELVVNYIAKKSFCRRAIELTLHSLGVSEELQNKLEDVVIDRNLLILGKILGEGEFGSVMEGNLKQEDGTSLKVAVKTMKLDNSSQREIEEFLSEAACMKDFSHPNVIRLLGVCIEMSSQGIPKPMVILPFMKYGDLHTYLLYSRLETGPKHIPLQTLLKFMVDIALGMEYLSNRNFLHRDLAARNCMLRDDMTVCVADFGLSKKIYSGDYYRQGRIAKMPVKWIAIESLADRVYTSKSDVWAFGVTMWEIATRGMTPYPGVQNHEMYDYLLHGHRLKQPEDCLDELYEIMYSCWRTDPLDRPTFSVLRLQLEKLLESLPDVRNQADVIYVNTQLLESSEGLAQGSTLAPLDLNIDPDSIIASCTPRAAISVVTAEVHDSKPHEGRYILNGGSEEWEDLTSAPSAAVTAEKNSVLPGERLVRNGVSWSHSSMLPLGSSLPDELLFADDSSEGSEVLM

EPHB1 = EPHB1 (UniProt P54762); assay: as above
EPHB1, sequence (P54762 whole entry, looked up): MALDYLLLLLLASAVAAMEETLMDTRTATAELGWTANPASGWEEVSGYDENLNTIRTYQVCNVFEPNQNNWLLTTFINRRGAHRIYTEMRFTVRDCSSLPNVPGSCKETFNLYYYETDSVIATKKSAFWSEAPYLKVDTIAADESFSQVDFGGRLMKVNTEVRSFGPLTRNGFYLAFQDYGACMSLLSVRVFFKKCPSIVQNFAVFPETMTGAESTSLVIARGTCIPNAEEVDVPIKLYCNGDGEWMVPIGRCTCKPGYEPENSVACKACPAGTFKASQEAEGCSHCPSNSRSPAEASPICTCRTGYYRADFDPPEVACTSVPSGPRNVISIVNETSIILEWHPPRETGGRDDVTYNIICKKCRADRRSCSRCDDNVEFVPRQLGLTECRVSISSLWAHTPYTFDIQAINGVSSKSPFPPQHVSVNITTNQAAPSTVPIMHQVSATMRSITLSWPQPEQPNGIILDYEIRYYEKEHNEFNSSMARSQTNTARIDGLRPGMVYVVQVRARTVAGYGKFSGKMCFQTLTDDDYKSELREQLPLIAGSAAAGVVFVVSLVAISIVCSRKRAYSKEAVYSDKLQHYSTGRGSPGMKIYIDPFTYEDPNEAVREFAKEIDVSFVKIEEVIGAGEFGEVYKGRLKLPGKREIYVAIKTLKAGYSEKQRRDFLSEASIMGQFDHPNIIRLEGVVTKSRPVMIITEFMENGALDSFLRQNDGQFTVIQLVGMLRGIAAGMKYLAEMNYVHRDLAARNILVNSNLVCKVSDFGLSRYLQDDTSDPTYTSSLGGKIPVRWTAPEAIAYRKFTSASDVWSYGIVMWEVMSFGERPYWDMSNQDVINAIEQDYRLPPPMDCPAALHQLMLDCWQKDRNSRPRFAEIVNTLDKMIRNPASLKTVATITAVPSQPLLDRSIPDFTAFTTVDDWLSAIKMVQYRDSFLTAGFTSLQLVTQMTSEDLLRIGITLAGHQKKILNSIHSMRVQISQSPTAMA

FGFR3 = FGFR3 (UniProt P22607); assay: as above
FGFR3, sequence (P22607 whole entry, looked up): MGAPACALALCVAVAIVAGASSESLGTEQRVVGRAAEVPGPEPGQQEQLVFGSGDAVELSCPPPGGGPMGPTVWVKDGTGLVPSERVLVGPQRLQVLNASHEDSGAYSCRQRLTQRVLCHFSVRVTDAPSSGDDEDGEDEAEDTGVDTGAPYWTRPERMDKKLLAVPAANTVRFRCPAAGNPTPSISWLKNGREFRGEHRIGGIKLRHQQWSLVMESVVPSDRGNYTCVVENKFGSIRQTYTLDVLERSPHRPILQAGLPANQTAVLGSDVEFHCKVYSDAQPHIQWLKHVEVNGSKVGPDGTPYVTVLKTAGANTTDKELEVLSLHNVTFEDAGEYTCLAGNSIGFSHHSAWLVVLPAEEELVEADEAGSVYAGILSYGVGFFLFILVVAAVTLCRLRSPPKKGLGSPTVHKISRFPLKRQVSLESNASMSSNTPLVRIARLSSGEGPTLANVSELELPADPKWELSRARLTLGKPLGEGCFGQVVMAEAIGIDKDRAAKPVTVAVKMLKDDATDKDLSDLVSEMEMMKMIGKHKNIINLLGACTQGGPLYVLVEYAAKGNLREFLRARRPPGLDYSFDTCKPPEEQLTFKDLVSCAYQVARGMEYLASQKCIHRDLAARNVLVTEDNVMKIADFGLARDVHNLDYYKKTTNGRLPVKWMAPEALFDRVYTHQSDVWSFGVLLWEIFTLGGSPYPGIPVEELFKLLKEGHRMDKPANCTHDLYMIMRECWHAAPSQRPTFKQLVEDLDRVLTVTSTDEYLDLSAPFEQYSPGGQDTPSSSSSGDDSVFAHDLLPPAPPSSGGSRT

c-Abl (mouse) = assay: as above
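Throughout, for SH2 binding enrichment of the phosphorylated peptide, bacterial display: peptide library displayed on the E. coli surface as eCPX fusions, selected cells deep-sequenced, score is each peptide's frequency after selection divided by its frequency in the input.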
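Throughout, for phosphorylation enrichment, bacterial display: 11-residue human phosphosite peptides and single-mutation variants displayed on the E. coli surface, counted by deep sequencing, each peptide's frequency after selection divided by its frequency in the unselected input library; frequency after pTyr selection over input frequency; kinase dosed for 20-30% of maximal phosphorylation in three min.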

| Sequence | SH2 binding enrichment (Grb2 SH2) | SH2 binding enrichment (SHP2-C SH2) | SH2 binding enrichment (c-Src SH2) | phosphorylation enrichment (Fer (mouse)) | phosphorylation enrichment (Fes) | phosphorylation enrichment (c-Src) | phosphorylation enrichment (FGFR1) | phosphorylation enrichment (EPHB2) | phosphorylation enrichment (Fyn) | phosphorylation enrichment (Jak2) | phosphorylation enrichment (AncSZ) | phosphorylation enrichment (Hck) | phosphorylation enrichment (MERTK) | phosphorylation enrichment (EPHB1) | phosphorylation enrichment (FGFR3) | phosphorylation enrichment (c-Abl (mouse)) |
| --- | --- | --- | --- | --- | --- | --- | --- | --- | --- | --- | --- | --- | --- | --- | --- | --- |
| DIPIRYSITGV [CDH4_Y205] | 0.774 | 0.972 | 0.53 | 0.402 | 0.827 | 0.367 | 0.444 | 0.474 | 0.447 | 0.85 | 0.822 | 0.45 | 0.405 | 0.391 | 0.478 | 0.641 |
| YRIGPYQPSVP [MATR3_Y784_N787S] | 0.829 | 0.996 | 0.668 | 0.429 | 0.708 | 0.449 | 0.749 | 0.434 | 0.514 | 0.524 | 0.55 | 0.481 | 0.425 | 0.421 | 0.759 | 0.62 |
| GGEAIYAAPFA [Abl_opt_1995] | 0.778 | 0.416 | 0.486 | 20.5 | 1.11 | 9.05 | 2.48 | 27.9 | 13.1 | 0.747 | 4 | 12.7 | 13.5 | 20.2 | 2.05 | 35.6 |
| VDASFYGGRGV [ANTXR2_Y381_YF] | 0.721 | 0.576 | 0.5 | 0.336 | 0.632 | 0.391 | 0.32 | 0.338 | 0.447 | 0.574 | 0.561 | 0.91 | 0.377 | 0.396 | 0.463 | 0.443 |
| PFSSPYENSLI [EPOR_Y489_N487S_YF] | 14.1 | 1.03 | 6.34 | 3.51 | 1.42 | 0.674 | 0.604 | 1.15 | 1.34 | 0.941 | 1.4 | 1.21 | 0.891 | 1.24 | 1.3 | 0.705 |
| KKCTRYIDCDL [ASPA_Y64] | 0.932 | 0.83 | 0.875 | 0.423 | 0.852 | 0.429 | 0.623 | 0.434 | 0.389 | 0.782 | 0.798 | 0.41 | 0.421 | 0.428 | 0.575 | 0.757 |
| RCKSHYAAFSV [C1QTNF1_Y145] | 1.45 | 1.73 | 1.34 | 1.46 | 1.35 | 1.07 | 1.1 | 0.903 | 1.4 | 0.737 | 1.41 | 1.42 | 2.89 | 1.43 | 0.983 | 4.74 |
| MEKEKYVSYIS [JMJD1C_Y596] | 0.612 | 0.815 | 0.432 | 0.397 | 1.11 | 0.5 | 0.401 | 0.509 | 0.471 | 0.921 | 0.795 | 0.442 | 0.413 | 0.571 | 0.672 | 0.629 |
| DEGVNHFMSKG [FBXO8_Y156_Y156H] | 0.718 | 0.778 | 0.464 | 0.357 | 0.64 | 0.297 | 0.436 | 0.424 | 0.443 | 0.42 | 0.61 | 0.364 | 0.324 | 0.433 | 0.504 | 0.516 |
| NSFKYYMSDDI [ATRX_Y204_C200S] | 0.943 | 0.746 | 1.05 | 0.501 | 1.01 | 0.499 | 0.567 | 0.542 | 0.434 | 0.871 | 0.87 | 0.443 | 0.451 | 0.503 | 0.659 | 0.627 |
| EQDRAYLEGTC [HLA-C_Y183_L180D] | 0.939 | 0.868 | 0.771 | 0.499 | 1.14 | 0.519 | 0.521 | 0.574 | 0.511 | 0.978 | 1.1 | 0.507 | 0.454 | 0.549 | 0.663 | 0.84 |
| KLADIYQAELR [GFAP_Y116_V115I] | 1.01 | 0.561 | 0.541 | 0.502 | 0.839 | 1.62 | 0.419 | 0.595 | 0.795 | 0.813 | 0.789 | 0.799 | 0.709 | 0.59 | 0.582 | 0.674 |
| VVKTVYSLQPS [KNSTRN_Y87_P92S] | 0.651 | 0.981 | 0.482 | 0.485 | 0.848 | 2.05 | 0.52 | 0.455 | 1.73 | 0.715 | 0.648 | 0.688 | 1.42 | 0.671 | 0.561 | 0.716 |
| RTVPLYESLRK [DDB1_Y718_P721L] | 1.04 | 1.07 | 0.78 | 11.3 | 1.15 | 8.53 | 0.466 | 26.1 | 11.7 | 0.547 | 0.668 | 12.4 | 8.17 | 23 | 0.437 | 1.07 |
| RSAGKYDVYFI [MECP2_Y120_L124F] | 0.923 | 0.804 | 0.639 | 0.464 | 1.34 | 3.15 | 0.535 | 0.467 | 5.26 | 0.925 | 1.09 | 4.46 | 1.02 | 0.691 | 0.484 | 0.923 |

More lines, main results first:

| SH2 binding enrichment (Grb2 SH2) | SH2 binding enrichment (SHP2-C SH2) | SH2 binding enrichment (c-Src SH2) | Sequence | phosphorylation enrichment (Fer (mouse)) | phosphorylation enrichment (Fes) | phosphorylation enrichment (c-Src) | phosphorylation enrichment (FGFR1) | phosphorylation enrichment (EPHB2) | phosphorylation enrichment (Fyn) | phosphorylation enrichment (Jak2) | phosphorylation enrichment (AncSZ) | phosphorylation enrichment (Hck) | phosphorylation enrichment (MERTK) | phosphorylation enrichment (EPHB1) | phosphorylation enrichment (FGFR3) | phosphorylation enrichment (c-Abl (mouse)) |
| --- | --- | --- | --- | --- | --- | --- | --- | --- | --- | --- | --- | --- | --- | --- | --- | --- |
| 0.869 | 0.776 | 0.504 | HQNGMYRLHQD [SGSH_Y89_G90R] | 0.66 | 0.971 | 0.5 | 0.521 | 0.745 | 0.42 | 0.933 | 0.814 | 0.461 | 0.414 | 0.741 | 0.661 | 0.549 |
| 1.04 | 0.913 | 0.496 | PFVFFYSFLLK [PTEN_Y178_R173P_YF] | 0.983 | 2.12 | 0.577 | 0.751 | 0.686 | 0.679 | 2.1 | 1.99 | 0.983 | 0.931 | 1.07 | 1.25 | 1.52 |
| 0.9 | 0.846 | 0.516 | YKGKNYKPLDL [RPL35_Y78_K77N] | 0.267 | 0.697 | 0.391 | 0.32 | 0.246 | 0.334 | 0.59 | 0.423 | 0.276 | 0.333 | 0.277 | 0.362 | 0.575 |
| 0.788 | 0.827 | 0.605 | WIPNQYPIISE [NOG_Y222_I220N] | 0.541 | 0.98 | 0.636 | 0.63 | 0.526 | 0.361 | 0.862 | 0.86 | 0.465 | 0.342 | 0.427 | 0.671 | 0.747 |
| 0.83 | 0.687 | 0.671 | LSQDVYEEDSF [RET_Y900_R897Q_YF] | 0.978 | 2.43 | 0.852 | 0.991 | 0.962 | 0.882 | 2.56 | 2.12 | 0.945 | 1.26 | 1.19 | 1.44 | 1.58 |
| 0.974 | 0.758 | 0.558 | QMQNPYSRHSS [MUC13_Y501] | 0.648 | 0.584 | 0.472 | 0.572 | 0.416 | 0.418 | 0.468 | 0.521 | 0.544 | 0.346 | 0.363 | 0.495 | 0.57 |
| 0.983 | 0.456 | 0.784 | NIKKEYTKMVQ [PMS2_Y181_A182T] | 0.27 | 0.492 | 0.426 | 0.808 | 0.333 | 0.378 | 0.49 | 0.494 | 0.385 | 0.452 | 0.394 | 0.439 | 0.502 |
| 1.03 | 0.778 | 0.601 | QTPVLYAMLFH [MPZ_Y220_D224Y_YF] | 6.25 | 1.23 | 4.04 | 2.41 | 4.17 | 4.56 | 1.39 | 0.771 | 5.5 | 7.73 | 6.9 | 2.13 | 1.61 |
| 1.26 | 5.62 | 3.26 | QLQVFYATLDQ [MIPEP_Y579] | 2.77 | 2.19 | 3.92 | 1.12 | 1.99 | 1.8 | 2.12 | 1.74 | 3.38 | 7.63 | 1.09 | 1.34 | 2.27 |
| 1.18 | 1.26 | 1.28 | HAVYVCDICHV [TWNK_Y508_Y508C] | 0.775 | 1.42 | 0.916 | 0.628 | 2.06 | 0.627 | 1.01 | 1.1 | 0.826 | 0.524 | 1.79 | 0.904 | 0.972 |
| 0.962 | 0.766 | 5.64 | IVRSPYEDLED [VHL_Y185_L184P] | 0.562 | 1.16 | 0.531 | 0.571 | 0.682 | 0.506 | 1.35 | 1.31 | 0.528 | 0.533 | 0.58 | 0.704 | 0.748 |
| 1.02 | 0.925 | 0.586 | AVDDKYSRREE [SART1_Y685_I681V] | 0.458 | 0.977 | 0.427 | 0.457 | 0.516 | 0.567 | 0.679 | 0.887 | 0.533 | 0.426 | 0.453 | 0.581 | 0.478 |
| 0.748 | 0.58 | 0.46 | DAKTIYDFTDT [PDK1_Y136_A134T] | 1.61 | 1.07 | 3.32 | 0.508 | 0.604 | 3.52 | 0.876 | 1.07 | 1.33 | 1.48 | 0.696 | 0.729 | 0.724 |
| 1.98 | 1.92 | 1.85 | LLVVLYKFRCF [PSEN1_Y154_Y159F_YF] | 0.718 | 1.97 | 0.937 | 0.568 | 0.773 | 0.51 | 1.85 | 1.39 | 0.622 | 1.03 | 0.685 | 1.56 | 1.77 |
